Measured values as given in paper PMC6945068.

Target: purified 3xFlag-tagged B56γ (Xenopus laevis)
Experiment: pull-down (amylose beads) with immunoblot quantification
Conditions: chain shown with the change, purified Flag-B56γ, 23°C, 30 min, read off a plot

Chain of purified 3xFlag-tagged B56γ (Xenopus laevis) (chain, as listed by the source): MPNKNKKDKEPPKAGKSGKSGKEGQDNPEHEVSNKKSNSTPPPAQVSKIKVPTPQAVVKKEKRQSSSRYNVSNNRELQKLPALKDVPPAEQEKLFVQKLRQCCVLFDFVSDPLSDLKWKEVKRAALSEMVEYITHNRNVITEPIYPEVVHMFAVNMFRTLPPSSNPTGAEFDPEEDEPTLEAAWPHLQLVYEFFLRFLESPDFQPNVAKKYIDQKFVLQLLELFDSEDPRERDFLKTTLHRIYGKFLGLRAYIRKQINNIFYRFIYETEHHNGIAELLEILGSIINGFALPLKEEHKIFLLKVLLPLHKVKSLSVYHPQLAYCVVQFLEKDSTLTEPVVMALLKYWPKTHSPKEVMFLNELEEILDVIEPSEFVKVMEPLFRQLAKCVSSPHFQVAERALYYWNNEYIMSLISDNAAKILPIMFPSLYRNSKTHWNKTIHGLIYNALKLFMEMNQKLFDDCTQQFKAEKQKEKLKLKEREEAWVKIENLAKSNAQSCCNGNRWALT

- response (pre-incubated with Cdk2-cyclin A at 30°C for 60 min (+Cdk), parent: est. 5.3): 1.2 A.U.
- response (without Cdk2-cyclin A pre-incubation, parent: 1.0): 1 A.U.
B1: MBP-fused Apc1-loop^500 wild type (residues 515-584 of Xenopus tropicalis Apc1), Q08D52 T532A; T539A; S558A (protein)
chain: GLAAPSLGMSNPMPRPSAPLESISAPAKPLNKHLAPMDEAGMLAPVPELRDSTRLHESTYLDDCTFHQFG
